B1: Hammerhead Ribozyme (parent)
chain: ACCGGAUGUGCUUUCCGGUCUGAUGAGUCCGUGAGGACGAAACAG

Variants of: B1
Test: self-cleavage, relative activity (ratio to wild type); higher = more cleavage; co-transcriptional

Compared with ACCGGAUGUGCUUUCCGGUCUGUUGAGUCCGUGAGGACGAAAUAG [A23U C43U], ACCGGAUGUGCUUUCCGGUCUGAUGAGUGCGUGAGGAAGAAACAG [C29G C38A] is higher in self-cleavage: 0.433 for the first, 0.458 for the second.

First: ACUGGAUGUGCUUUCCGGUCUGAUGAGUCCGUAAGGACGAAACAG [C3U G33A]
Second: ACCGGAUGUCCUUUCCGGUCUGAAGAGUCCGUGAGGACGAAACAG [G10C U24A]
The self-cleavage of the first is higher: 0.953 for the first, 0.811 for the second.

Going from ACCGGAUGUGCUUUCCGGUCUGAUGAGUCCGUGACGACGAAAAAG [G35C C43A] to GCCGGAUGUGCUUUCCGGUCUGAUGAGUCCGUGAGAACGAAACAG [A1G G36A], the self-cleavage rises from 0.352 to 1.21.

Compared with ACCGGAUGUGCUUUCCGGUCCGAUGAGUCCGUGAGGACGAAACGG [U21C A44G], ACCGGAUGUGCUUUCCGGUCUGAUGAGUCCGUUAGGACGAAUCAG [G33U A42U] is lower in self-cleavage: 0.852 for the first, 0.371 for the second.

Going from ACCGGAUGUCCUUUUCGGUCUGAUGAGUCCGUGAGGACGAAACAG [G10C C15U] to ACCGGAUGUGCAUUCCGGUCUCAUGAGUCCGUGAGGACGAAACAG [U12A G22C], the self-cleavage falls from 1.01 to 0.236.

First: ACCGGAUGUGCUUUCCGGUCUGAUGAUUCCGUGAGGACAAAACAG [G27U G39A]
Second: ACCGGAUGUGCUUUCCGGUCUGAUGCGUCCGUGACGACGAAACAG [A26C G35C]
The self-cleavage of the first is lower: 0.341 for the first, 0.489 for the second.

Compared with ACCGGAUGGGCUUUCCGGUCUGAUGAGUCCGUGAGGACGAAAGAG [U9G C43G], ACCGGAUGGGCUUUCCGGUCUGAUGAGUCCGUGAGGACGAAAAAG [U9G C43A] is lower in self-cleavage: 0.455 for the first, 0.271 for the second.

First: ACCGGAUGUGCUUUCCGGUCUGAUGAGACUGUGAGGACGAAACAG [U28A C30U]
Second: ACCGGAUGUGCUUUCCGGUCUGAUGAGUCCGUGAGGCCGCAACAG [A37C A40C]
The self-cleavage of the first is higher: 0.562 for the first, 0.285 for the second.

Compared with ACCGGAUGUGAUUUCCGGUCAGAUGAGUCCGUGAGGACGAAACAG [C11A U21A], AACGGAGGUGCUUUCCGGUCUGAUGAGUCCGUGAGGACGAAACAG [C2A U7G] is lower in self-cleavage: 0.895 for the first, 0.518 for the second.

First: ACCGGAUGUGCUUUCCGGUCUGAUAACUCCGUGAGGACGAAACAG [G25A G27C]
Second: ACCGGAUGUGCUUUCCGGUCUGACGAGUCCGUGAGAACGAAACAG [U24C G36A]
The self-cleavage of the first is lower: 0.355 for the first, 0.56 for the second.

Compared with ACCGGGUGUGCUUUCAGGUCUGAUGAGUCCGUGAGGACGAAACAG [A6G C16A], ACCGGAUGUGCUUUCCGGUCUGAUGAGUUCGUGAGGACGAUACAG [C29U A41U] is lower in self-cleavage: 0.825 for the first, 0.337 for the second.

Compared with ACCGGAUGUGCUUUCCGGUCUGAUGAGUCCAUGAGGACGAUACAG [G31A A41U], ACCGGAUGUACUUUUCGGUCUGAUGAGUCCGUGAGGACGAAACAG [G10A C15U] is higher in self-cleavage: 0.399 for the first, 0.919 for the second.

First: ACCGGAUGCGCUUUCCGAUCUGAUGAGUCCGUGAGGACGAAACAG [U9C G18A]
Second: AGCGGAUGUGCUUUCCGGUCUGAUGAGGCCGUGAGGACGAAACAG [C2G U28G]
The self-cleavage of the first is higher: 0.627 for the first, 0.315 for the second.

First: ACCGGACGUGCCUUCCGGUCUGAUGAGUCCGUGAGGACGAAACAG [U7C U12C]
Second: ACCGGAUGUGCUUUCCGGUCUGAUAAGUCCGUGAUGACGAAACAG [G25A G35U]
The self-cleavage of the first is higher: 1.09 for the first, 0.35 for the second.

Going from ACUGGAGGUGCUUUCCGGUCUGAUGAGUCCGUGAGGACGAAACAG [C3U U7G] to GCCGGAUGUGCUUUCCGAUCUGAUGAGUCCGUGAGGACGAAACAG [A1G G18A], the self-cleavage falls from 1.25 to 0.906.

First: GCCGGAUGUACUUUCCGGUCUGAUGAGUCCGUGAGGACGAAACAG [A1G G10A]
Second: ACCGGAUGUUCUUUCCGGUCUGAUGAGUUCGUGAGGACGAAACAG [G10U C29U]
The self-cleavage of the first is higher: 1.92 for the first, 0.94 for the second.

First: ACCGGAUGUGCUUUCCGGUCUGAUGAGACCGUGAGGAUGAAACAG [U28A C38U]
Second: ACCGGAUGUGCUUUCCGGUGUGAUGAGUCCGUGAGGACGAAACCG [C20G A44C]
The self-cleavage of the first is higher: 0.703 for the first, 0.278 for the second.

Compared with AUCGGAUGUGCUUUCCGGUCUGAUGAGUCAGUGAGGACGAAACAG [C2U C30A], AGCGGAUGUGCUUUCCGGUCUGAUGAGUCCGUGAUGACGAAACAG [C2G G35U] is lower in self-cleavage: 0.893 for the first, 0.272 for the second.

Going from ACCGGAUGUGCAUUCCGGUCUGAUGAGUCAGUGAGGACGAAACAG [U12A C30A] to ACCGGAUGUGCUUUCUGGUCUGAUGAGUCCGUGAGGUCGAAACAG [C16U A37U], the self-cleavage falls from 1.08 to 0.848.

First: ACCGGAUGUGCUUUCCGGUCUGAUGAGUCCGUGAGGAUGAGACAG [C38U A41G]
Second: ACCGGAUGUGCUUUCCGGUCUAAUGAGUCCGCGAGGACGAAACAG [G22A U32C]
The self-cleavage of the first is higher: 0.352 for the first, 0.29 for the second.

Compared with ACCGGAUCUGCUUUUCGGUCUGAUGAGUCCGUGAGGACGAAACAG [G8C C15U], ACCGGAUGUGCUUUCAGGUCUGAUGAGUGCGUGAGGACGAAACAG [C16A C29G] is lower in self-cleavage: 1.26 for the first, 0.566 for the second.

Compared with ACCGGAUGUGCUUUCCGAUCUGAUGAGACCGUGAGGACGAAACAG [G18A U28A], ACCGGAUGUGCUUUCCAGUCUGAUGAGUCCAUGAGGACGAAACAG [G17A G31A] is higher in self-cleavage: 0.475 for the first, 0.875 for the second.

Going from ACCGGAUGUGCUUUCCGGUCUGAUGAGUCCGUUAGGACGAAACAC [G33U G45C] to ACCGAAUGUGCUUUCCGGUCUGAUGAGUCCGUGAAGACGAAACAG [G5A G35A], the self-cleavage falls from 0.752 to 0.642.

First: ACCGGAUGUGCUUUCCGCUCUGAUGAGUCCUUGAGGACGAAACAG [G18C G31U]
Second: ACCGGAUGUGCUUGCCGGUCUGAUGAGUCCGUGAGGCCGAAACAG [U14G A37C]
The self-cleavage of the first is lower: 0.673 for the first, 0.777 for the second.

First: ACCGGAUGUGCUUUCCGGUCUGAAGAGUCCGUGAGCACGAAACAG [U24A G36C]
Second: GCCGGAUGUGCUUUCAGGUCUGAUGAGUCCGUGAGGACGAAACAG [A1G C16A]
The self-cleavage of the first is lower: 0.362 for the first, 1.15 for the second.

First: ACCGGAUGUGCUUUCCGGUCUGAUGAGUCUGGGAGGACGAAACAG [C30U U32G]
Second: ACCGGAUGUGCUUUCCGGUCUCAUGAGUCCGUGAGGACUAAACAG [G22C G39U]
The self-cleavage of the first is higher: 1.17 for the first, 0.286 for the second.

Going from ACCUGGUGUGCUUUCCGGUCUGAUGAGUCCGUGAGGACGAAACAG [G4U A6G] to GCCGGAUGUGCUUUCCGGUCGGAUGAGUCCGUGAGGACGAAACAG [A1G U21G], the self-cleavage rises from 0.327 to 0.812.

Going from ACCGGAUGUGCUUUCCGGUUUGAUGAGUCCGAGAGGACGAAACAG [C20U U32A] to ACCGGAUGUGCUUUCCGGGCUGAUGAGUCCGUGGGGACGAAACAG [U19G A34G], the self-cleavage falls from 0.506 to 0.345.

ACCGGAUGUGCUUUCCGAUCUGUUGAGUCCGUGAGGACGAAACAG [G18A A23U] gave a self-cleavage of 0.345.

From the RNAGym collection of RNA variant scans (doi:10.7554/elife.80360)
